Reference: patent US20190134213A1 (Bicycle, published 2019)
Starred links: 1 amine or outer side, 2 acyl side, 3 side chain; linkers in the order of their positions; H or OH if unused. Positions of bridges follow the written chain, without caps; N, C: chain ends. Non-standard residues stand in square brackets, D forms with d. Sar10 = ten sarcosines (spacer), CN(CC(=O)N(C)CC(=O)N(C)CC(=O)N(C)CC(=O)N(C)CC(=O)[*:2])C(=O)CN(C)C(=O)CN(C)C(=O)CN(C)C(=O)CN(C)C(=O)CN(C)[*:1]; SMPP‑derived hindered disulphide linker = hindered disulphide linker derived from SMPP, with two methyl groups, carrying the toxin DM1; 1Nal = N[C@@H](Cc1cccc2ccccc12)C(=O)O; TBMB = c1c(C[*:1])cc(C[*:3])cc1C[*:2]; Tle = CC(C)(C)[C@H](N)C(=O)O; βAla = NCCC(=O)O; DM1 = toxin

Legend:
[1] = molecular target: T1, MT1-MMP hemopexin-like repeats (MT1-MMP hemopexin domain), residues Cys319-Gly511 from the human gene, … (human, UniProt P50281 319-511); experiment: fluorescence polarisation competition, tracer 17-69-07-N040, human MT1-MMP hemopexin domain (n = 2)
T1 construct: range 319-511; Secreted soluble protein expressed in HEK293 cells, purified by Ni-NTA and gel filtration; also called hemopexin of MT1-MMP; MMP14
From the text: (§1) Here, a pre-formed complex of PEX with the fluorescent PEX-binding tracer is titrated with free, non-fluoresceinated bicyclic peptide. Since all 17-69-based peptides are expected to bind at the same site, the titrant will displace the fluorescent tracer from PEX. Dissociation of the complex can be measured quantitatively, and the Kd of the competitor (titrant) to the target protein determined. The advantage of the competition method is that the affinities of non-fluoresceinated bicyclic peptides can be determined accurately and rapidly.
(§2) Subsequently, the non-fluorescent competitor bicyclic peptide (usually just the bicycle core sequence) is titrated, such that it displaces the fluorescent tracer from the target protein. The displacement of the tracer is measured and associated with a drop in fluorescence polarisation. The drop in fluorescence polarisation is proportional to the fraction of target protein bound with the non-fluorescent titrant, and thus is a measure of the affinity of titrant to target protein.
(§3) The raw data is fit to the analytical solution of the cubic equation that describes the equilibria between fluorescent tracer, titrant, and binding protein. The fit requires the value of the affinity of fluorescent tracer to the target protein, which can be determined separately by direct binding FP experiments (see previous section). […]

[2] = molecular target: T1, MT1-MMP hemopexin-like repeats (MT1-MMP …); experiment: fluorescence polarisation competition with a fluoresceinated bicyclic tracer on MT1-MMP hemopexin domain
From the text: as §1, §2, §3

Row | Binder | Kd [1] | Kd [2]
1 | {DM1-SMPP‑derived hindered disulphide linker}-AC[dA]NE[1Nal][dA]CEDFYD[Tle]C-NH2 (linker 2-8-15 via TBMB, also called Bicycle Drug Conjugate of 17-69-07-N268 with DM1) [BT17BDC-27] | 0.69 nM | –
2 | H-AC[dA]NE[1Nal][dA]CEDFYD[Tle]C-NH2 (linker 2-8-15 via TBMB; SMILES C[C@H](N)C(=O)N[C@H]1CSCc2cc3cc(c2)CSC[C@H](NC(=O)[C@@H](C)NC(=O)[C@H](Cc2cccc4ccccc24)NC(=O)[C@H](CCC(=O)O)NC(=O)[C@H](CC(N)=O)NC(=O)[C@@H](C)NC1=O)C(=O)N[C@@H](CCC(=O)O)C(=O)N[C@@H](CC(=O)O)C(=O)N[C@@H](Cc1ccccc1)C(=O)N[C@@H](Cc1ccc(O)cc1)C(=O)N[C@@H](CC(=O)O)C(=O)N[C@@H](C(C)(C)C)C(=O)N[C@H](C(N)=O)CSC3, Synthetic bicyclic peptide cyclised on TBMB; lacks the bAla-Sar10 spacer of 17-69-07-N241; Precursor of BT17BDC-27; also called A-(17-69-07) D-Ala1 1Nal4 D-Ala5 tBuGly11; AC(D-Ala)NE(1Nal)(D-Ala)CEDFYD(tBuGly)C) [17-69-07-N268] | – | 1.7 nM
3 | {DM1-SMPP‑derived hindered disulphide linker}-[βAla][Sar10]AC[dA]NE[1Nal][dA]CEDFYD[Tle]C-NH2 (linker 4-10-17 via TBMB, also called Bicycle Drug Conjugate of 17-69-07-N241 with DM1) [BT17BDC-28] | 1.65 nM | –
4 | H-[βAla][Sar10]AC[dA]NE[1Nal][dA]CEDFYD[Tle]C-NH2 (linker 4-10-17 via TBMB; SMILES C[C@H](NC(=O)CN(C)C(=O)CN(C)C(=O)CN(C)C(=O)CN(C)C(=O)CN(C)C(=O)CN(C)C(=O)CN(C)C(=O)CN(C)C(=O)CN(C)C(=O)CN(C)C(=O)CCN)C(=O)N[C@H]1CSCc2cc3cc(c2)CSC[C@H](NC(=O)[C@@H](C)NC(=O)[C@H](Cc2cccc4ccccc24)NC(=O)[C@H](CCC(=O)O)NC(=O)[C@H](CC(N)=O)NC(=O)[C@@H](C)NC1=O)C(=O)N[C@@H](CCC(=O)O)C(=O)N[C@@H](CC(=O)O)C(=O)N[C@@H](Cc1ccccc1)C(=O)N[C@@H](Cc1ccc(O)cc1)C(=O)N[C@@H](CC(=O)O)C(=O)N[C@@H](C(C)(C)C)C(=O)N[C@H](C(N)=O)CSC3, Synthetic bicyclic peptide cyclised on TBMB; precursor of BT17BDC-28; also called bAla-Sar10-A-(17-69-07) D-Ala1 1Nal4 D-Ala5 tBuGly11; (bAla)-Sar10-AC(D-Ala)NE(1Nal)(D-Ala)CEDFYD(tBuGly)C) [17-69-07-N241] | – | 1.21 nM
